System: Escherichia coli TOP10
Experiment: shrunken log2 fold change of peptide-encoding DNA abundance (4.5 h post-induction vs induction); higher = less antimicrobial activity (less host growth inhibition)
Details: time post-induction: 4.5 h; library: site-saturation at positions 5, 18, 19, 20
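Note: peptides expressed intracellularly from a pBAD plasmid library in pooled LB shake-flask culture, induced with 0.3% L-arabinose, DNA abundance read by NGS, three biological replicates, DESeq2 with apeglm shrinkage.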

First: RRIRMRPPRLPRPRPRPFFYPRP
Second: RRIRKRPPRLPRPRPRPAYKPRP
The “shrunken log2 fold change” value of the first is lower: -0.123 for the first, 0.354 for the second.

Compared with RRIRCRPPRLPRPRPRPLHIPRP, RRIRNRPPRLPRPRPRPGQFPRP is higher in “shrunken log2 fold change” value: -0.335 for the first, -0.0134 for the second.

Compared with RRIRARPPRLPRPRPRPPHFPRP, RRIRLRPPRLPRPRPRPYWQPRP is lower in “shrunken log2 fold change” value: 1.41 for the first, 0.0322 for the second.

Compared with RRIRIRPPRLPRPRPRPASPPRP, RRIRERPPRLPRPRPRPTAGPRP is higher in “shrunken log2 fold change” value: -0.0763 for the first, 0.161 for the second.

Compared with RRIRHRPPRLPRPRPRPLLAPRP, RRIRPRPPRLPRPRPRPQDWPRP is lower in “shrunken log2 fold change” value: 0.299 for the first, 0.0908 for the second.

Going from RRIRERPPRLPRPRPRPHCAPRP to RRIRPRPPRLPRPRPRPGYLPRP, the “shrunken log2 fold change” value falls from 0.201 to -0.129.

RRIRHRPPRLPRPRPRPKDPPRP and RRIRDRPPRLPRPRPRPMLRPRP are within 0.2 log units of each other in “shrunken log2 fold change” value: 0.0476 for the first, 0.0179 for the second.

RRIRERPPRLPRPRPRPFYWPRP and RRIRWRPPRLPRPRPRPWGTPRP are within 0.2 log units of each other in “shrunken log2 fold change” value: -0.158 for the first, -0.0421 for the second.

RRIRGRPPRLPRPRPRPDNDPRP and RRIRYRPPRLPRPRPRPDVDPRP are within 0.2 log units of each other in “shrunken log2 fold change” value: 0.0238 for the first, -0.0562 for the second.

Compared with RRIRDRPPRLPRPRPRPVMVPRP, RRIRLRPPRLPRPRPRPNIRPRP is lower in “shrunken log2 fold change” value: 0.111 for the first, -0.585 for the second.

First: RRIRARPPRLPRPRPRPPPLPRP
Second: RRIRCRPPRLPRPRPRPSTNPRP
The “shrunken log2 fold change” value of the first is higher: 1.84 for the first, -0.911 for the second.

First: RRIRPRPPRLPRPRPRPNVNPRP
Second: RRIRWRPPRLPRPRPRPRPLPRP
The “shrunken log2 fold change” value of the first is lower: -0.46 for the first, 0.158 for the second.

Going from RRIRIRPPRLPRPRPRPDIWPRP to RRIRCRPPRLPRPRPRPIDRPRP, the “shrunken log2 fold change” value rises from -0.324 to -0.0643.

RRIRLRPPRLPRPRPRPWGFPRP and RRIRKRPPRLPRPRPRPNYPPRP are within 0.2 log units of each other in “shrunken log2 fold change” value: -0.0515 for the first, -0.175 for the second.

Going from RRIRNRPPRLPRPRPRPFIKPRP to RRIRIRPPRLPRPRPRPTKFPRP, the “shrunken log2 fold change” value rises from -0.473 to -0.164.

Compared with RRIRARPPRLPRPRPRPIMCPRP, RRIRCRPPRLPRPRPRPGPVPRP is higher in “shrunken log2 fold change” value: -0.0139 for the first, 0.239 for the second.

Going from RRIRMRPPRLPRPRPRPSIWPRP to RRIRARPPRLPRPRPRPMKSPRP, the “shrunken log2 fold change” value rises from -0.255 to 0.186.

RRIRNRPPRLPRPRPRPQYAPRP and RRIRNRPPRLPRPRPRPVSIPRP are within 0.2 log units of each other in “shrunken log2 fold change” value: -0.0234 for the first, -0.0773 for the second.

Compared with RRIRFRPPRLPRPRPRPFSHPRP, RRIRNRPPRLPRPRPRPHEMPRP is higher in “shrunken log2 fold change” value: -1.36 for the first, -0.33 for the second.

RRIRLRPPRLPRPRPRPRKIPRP and RRIRCRPPRLPRPRPRPCSWPRP are within 0.2 log units of each other in “shrunken log2 fold change” value: 0.103 for the first, 0.0276 for the second.

Compared with RRIRPRPPRLPRPRPRPHFCPRP, RRIRFRPPRLPRPRPRPAWEPRP is higher in “shrunken log2 fold change” value: -0.353 for the first, 0.62 for the second.

Compared with RRIRKRPPRLPRPRPRPGDYPRP, RRIRTRPPRLPRPRPRPWVMPRP is lower in “shrunken log2 fold change” value: 0.559 for the first, -0.125 for the second.

RRIRGRPPRLPRPRPRPNQDPRP and RRIRPRPPRLPRPRPRPILDPRP are within 0.2 log units of each other in “shrunken log2 fold change” value: 0.0491 for the first, -0.0669 for the second.

Going from RRIRNRPPRLPRPRPRPNTNPRP to RRIRERPPRLPRPRPRPVFQPRP, the “shrunken log2 fold change” value rises from -0.59 to -0.0545.

Compared with RRIRARPPRLPRPRPRPYSYPRP, RRIRIRPPRLPRPRPRPWDIPRP is higher in “shrunken log2 fold change” value: -0.292 for the first, -0.00968 for the second.

Compared with RRIRPRPPRLPRPRPRPIFDPRP, RRIRIRPPRLPRPRPRPNCYPRP is lower in “shrunken log2 fold change” value: -0.137 for the first, -0.923 for the second.

RRIRFRPPRLPRPRPRPWYEPRP and RRIRVRPPRLPRPRPRPDCFPRP are within 0.2 log units of each other in “shrunken log2 fold change” value: -0.0991 for the first, 0.0303 for the second.

RRIRSRPPRLPRPRPRPHMYPRP and RRIRVRPPRLPRPRPRPWFAPRP are within 0.2 log units of each other in “shrunken log2 fold change” value: -0.37 for the first, -0.191 for the second.

First: RRIRDRPPRLPRPRPRPVWVPRP
Second: RRIRTRPPRLPRPRPRPTQSPRP
The “shrunken log2 fold change” value of the first is lower: -0.203 for the first, 0.311 for the second.

RRIRLRPPRLPRPRPRPMYRPRP and RRIRYRPPRLPRPRPRPHLGPRP are within 0.2 log units of each other in “shrunken log2 fold change” value: 0.0136 for the first, 0.0406 for the second.

RRIRSRPPRLPRPRPRPFSDPRP and RRIRMRPPRLPRPRPRPINYPRP are within 0.2 log units of each other in “shrunken log2 fold change” value: -0.126 for the first, -0.22 for the second.

RRIRSRPPRLPRPRPRPASGPRP and RRIRHRPPRLPRPRPRPGVGPRP are within 0.2 log units of each other in “shrunken log2 fold change” value: 0.268 for the first, 0.146 for the second.

Going from RRIRHRPPRLPRPRPRPCCQPRP to RRIRPRPPRLPRPRPRPQPIPRP, the “shrunken log2 fold change” value rises from -0.243 to 0.0388.

Compared with RRIRNRPPRLPRPRPRPMFNPRP, RRIRGRPPRLPRPRPRPTLPPRP is higher in “shrunken log2 fold change” value: -0.868 for the first, 0.574 for the second.

First: RRIRFRPPRLPRPRPRPSNSPRP
Second: RRIRFRPPRLPRPRPRPTKQPRP
The “shrunken log2 fold change” value of the first is lower: -0.723 for the first, 0.0621 for the second.

RRIRPRPPRLPRPRPRPQMWPRP and RRIRARPPRLPRPRPRPRNFPRP are within 0.2 log units of each other in “shrunken log2 fold change” value: 0.0355 for the first, -0.0153 for the second.

Compared with RRIRTRPPRLPRPRPRPYKFPRP, RRIRFRPPRLPRPRPRPDYGPRP is lower in “shrunken log2 fold change” value: 0.00477 for the first, -0.238 for the second.

With RRIRTRPPRLPRPRPRPPGFPRP the “shrunken log2 fold change” value was 0.287.

From the supplement of paper PMC9112550, “Optimization of the antimicrobial peptide Bac7 by deep mutational scanning” (BMC Biology, 2022)
